Test results as given in patent US20220228164A1, “ENGINEERED ANTIGEN PRESENTING CELLS” (Neogene Therapeutics B.V., priority 2021, published 2022).

Tested on: TCR transduced Jurkat cells
Test: Co-culture of TMG-expressing immortalized B cells with TCR transduced Jurkat cells, CD69 by flow cytometry (Example 5)
Type: cell-based, human
Conditions: 1:1 E:T, 20 hours co-culture
Description: B cells from healthy donors are isolated from PBMCs using magnetic-bead enrichment using protocols known to the skilled artisan and subsequently immortalized either by EBV infection or transduction with BCL-6/BCL-xL with methods known to the skilled artisan and as described herein (Example 10). Non-EBV immortalized B cells are either transduced with BCL-6/BCL-xL alone or co-transduced with CD40L transgene. Retroviral supernatant for B cell transduction is produced using methods known to a person skilled in the art and as described in this invention (Example 10). B cells are retrovirally transduced with different TMG constructs. The example presents different TMG designs encoding varying numbers of 25mer epitopes (1, 3, 12 or 40 epitopes) with or without LAMP1 signaling and transmembrane sequences. 96 hours after transduction, TMG-expressing B cells are enriched based on puromycin resistance using protocols described in the art and this invention (Example 10). In brief, BCL-6/BCL-xL immortalized B cells are cultured in complete B cell medium (RPMI1640 medium supplemented with 10% (v/v) Fetal Calf Serum (FCS), 1% (v/v) Penicillin/Streptomycin (P/S), 1% (v/v) Sodium Pyruvate, 1% (v/v) Non-essential amino acids, 1% (v/v) Glutamax, 50 nM 2-Mercaptoethanol) containing rh-IL-21 (50 ng/mL) and 1 ug/ml puromycin and at a density of 200,000-250,000 cells/ml for 96 hours. […]

B1: CD40L transgene: hCD40L transgene expressed in BCL-6/BCL-xL immortalized B cells (protein)
DNA: MIETYNQTSPRSAATGLPISMKIFMYLLTVFLITQMIGSALFAVYLHRRLDKIEDERNLHEDFVFMKTIQRCNTGERSLSLLNCEEIKSQFEGFVKDIMLNKEETKKENSFEMQKGDQNPQIAAHVISEASSKTTSVLQWAEKGYYTMSNNLVTLENGKQLTVKRQGLYYIYAQVTFCSNREASSQAPFIASLCLKSPGRFERILLRAANTHSSAKPCGQQSIHLGGVFELQPGASVFVNVTDPSQVSHGTGFTSFGLLKL
B1 was tested, and the “MHC-class II restricted antigen-presentation (CD69 expression by TCR transduced Jurkat cells)” value was “can enhance”.
